Reference: patent US11471462B2, “Compositions and methods for detecting and treating diabetes” (THE BROAD INSTITUTE, INC., priority 2016, dated 2022)

B1: HSDI7B12 (protein, UniProt Q53GQ0 1-312, looked up)
Very-long-chain 3-oxoacyl-CoA …: MESALPAAGFLYWVGAGTVAYLALRISYSLFTALRVWGVGNEAGVGPGLGEWAVVTGSTDGIGKSYAEELAKHGMKVVLISRSKDKLDQVSSEIKEKFKVETRTIAVDFASEDIYDKIKTGLAGLEIGILVNNVGMSYEYPEYFLDVPDLDNVIKKMININILSVCKMTQLVLPGMVERSKGAILNISSGSGMLPVPLLTIYSATKTFVDFFSQCLHEEYRSKGVFVQSVLPYFVATKLAKIRKPTLDKPSPETFVKSAIKTVGLQSRTNGYLIHALMGSIISNLPSWIYLKIVMNMNKSTRAHYLKKTKKN
B2: SACM1L (protein)
chain: MATAAYEQLKLHITPEKFYVEACDDGADDVLTIDRVSTEVTLAVKKDVPPSAVTRPIFGILGTIHLVAGNYLIVITKKIKVGEFFSHVVWKATDFDVLSYKKTMLHLTDIQLQDNKTFLAMLNHVLNVDGFYFSTTYDLTHTLQRLSNTSPEFQEMSLLERADQRFVWNGHLLRELSAQPEVHRFALPVLHGFITMHSCSINGKYFDWILISRRSCFRAGVRYYVRGIDSEGHAANFVETEQIVHYNGSKASFVQTRGSIPVFWSQRPNLKYKPLPQISKVANHMDGFQRHFDSQVIIYGKQVIINLINQKGSEKPLEQTFATMVSSLGSGMMRYIAFDFHKECKNMRWDRLSILLDQVAEMQDELSYFLVDSAGQVVANQEGVFRSNCMDCLDRTNVIQSLLARRSLQAQLQRLGVLHVGQKLEEQDEFEKIYKNAWADNANACAKQYAGTGALKTDFTRTGKRTHLGLIMDGWNSMIRYYKNNFSDGFRQDSIDLFLGNYSVDELESHSPLSVPRDWKFLALPIIMVVAFSMCIICLLMAGDTWTETLAYVLFWGVASIGTFFIILYNGKDFVDAPRLVQKEKID
B3: TMEM33 (protein)
chain: ADTTPNGPQGAGAVQFMMTNKLDTAMWLSRLFTVYCSALFVLPLLGLHEAASFYQRALLANALTSALRLHQRLPHFQLSRAFLAQALLEDSCHYLLYSLIFVNSYPVTMSIFPVLLFSLLHAATYTKKVLDARGSNSLPLLRSVLDKLSANQQNILKFIACNEIFLMPATVFMLFSGQGSLLQPFIYYRFLTLRYSSRRNPYCRTLFNELRIVVEHIIMKPACPLFVRRLCLQSIAFISRLAPTVP
B4: SURF4 (protein)
chain: GQNDLMGTAEDFADQFLRVTKQYLPHVARLCLISTFLEDGIRMWFQWSEQRDYIDTTWNCGYLLASSFVFLNLLGQLTGCVLVLSRNFVQYACFGLFGIIALQTIAYSILWDLKFLMRNLALGGGLLLLLAESRSEGKSMFAGVPTMRESSPKQYMQLGGRVLLVLMFMTLLHFDASFFSIVQNIVGTALMILVAIGFKTKLAALTLVVWLFAINVYFNAFWTIPVYKPMHDFLKYDFFQTMSVIGGLLLVVALGPGGVSMDEKKKEW
B5: DDOST (protein)
chain: SGPRTLVLLDNLNVRETHSLFFRSLKDRGFELTFKTADDPSLSLIKYGEFLYDNLIIFSPSVEDFGGNINVETISAFIDGGGSVLVAASSDIGDPLRELGSECGIEFDEEKTAVIDHHNYDISDLGQHTLIVADTENLLKAPTIVGKSSLNPILFRGVGMVADPDNPLVLDILTGSSTSYSFFPDKPITQYPHAVGKNTLLIAGLQARNNARVIFSGSLDFFSDSFFNSAVQKAAPGSQRYSQTGNYELAVALSRWVFKEEGVLRVGPVSHHRVGETAPPNAYTVTDLVEYSIVIQQLSNGKWVPFDGDDIQLEFVRIDPFVRTFLKKKGGKYSVQFKLPDVYGVFQFKVDYNRLGYTHLYSSTQVSVRPLQHTQYERFIPSAYPYYASAFSMMLGLFIFSIVFLHMKEKEKSD
B6: SEC61A2 (protein)
chain: MGIKFLEVIKPFCAVLPEIQKPERKIQFREKVLWTAITLFIFLVCCQIPLFGIMSSDSADPFYWMRVILASNRGTLMELGISPIVTSGLIMQLLAGAKIIEVGDTPKDRALFNGAQKLFGMIITIGQAIVYVMTGMYGDPAEMGAGICLLIIIQLFVAGLIVLLLDELLQKGYGLGSGISLFIATNICETIVWKAFSPTTINTGRGTEFEGAVIALFHLLATRTDKVRALREAFYRQNLPNLMNLIATVFVFAVVIYFQGFRVDLPIKSARYRGQYSSYPIKLFYTSNIPIILQSALVSNLYVISQMLSVRFSGNFLVNLLGQWADVSGGGPARSYPVGGLCYYLSPPESMGAIFEDPVHVVVYIIFMLGSCAFFSKTWIEVSGSSAKDVAKQLKEQQMVMRGHRDTSMVHELNRYIPTAAAFGGLCIGALSVLADFLGAIGSGTGILLAVTIIYQYFEIFVKEQAEVGGMGALFF
B7: BAG2 (protein)
chain: AQAKINAKANEGRFCRSSSMADRSSRLLESLDQLELRVEALREAATAVEQEKEILLEMIHSIQNSQDMRQISDGEREELNLTANRLMGRTLTVEVSVETIRNPQQQESLKHATRIIDEVVNKFLDDLGNAKSHLMSLYSACSSEVPHGPVDQKFQSIVIGCALEDQKKIKRRLETLLRNIENSDKAIKLLEHSKGAGSKTLQQNAESRFN
B8: SLC16A11 (protein, UniProt Q8NCK7 1-471, looked up)
Monocarboxylate transporter 11: MPAPQRKHRRGGFSHRCFPTPQTAMTPQPAGPPDGGWGWVVAAAAFAINGLSYGLLRSLGLAFPDLAEHFDRSAQDTAWISALALAVQQAASPVGSALSTRWGARPVVMVGGVLASLGFVFSAFASDLLHLYLGLGLLAGFGWALVFAPALGTLSRYFSRRRVLAVGLALTGNGASSLLLAPALQLLLDTFGWRGALLLLGAITLHLTPCGALLLPLVLPGDPPAPPRSPLAALGLSLFTRRAFSIFALGTALVGGGYFVPYVHLAPHALDRGLGGYGAALVVAVAAMGDAGARLVCGWLADQGWVPLPRLLAVFGALTGLGLWVVGLVPVVGGEESWGGPLLAAAVAYGLSAGSYAPLVFGVLPGLVGVGGVVQATGLVMMLMSLGGLLGPPLSGFLRDETGDFTASFLLSGSLILSGSFIYIGLPRALPSCGPASPPATPPPETGELLPAPQAVLLSPGGPGSTLDTTC
B9: HSD17B12 (protein)
chain: MESALPAAGFLYWVGAGTVAYLALRISYSLFTALRVWGVGNEAGVGPGLGEWAVVTGSTDGIGKSYAEELAKHGMKVVLISRSKDKLDQVSSEIKEKFKVETRTIAVDFASEDIYDKIKTGLAGLEIGILVNNVGMSYEYPEYFLDVPDLDNVIKKMININILSVCKMTQLVLPGMVERSKGAILNISSGSGMLPVPLLTIYSATKTFVDFFSQCLHEEYRSKGVFVQSVLPYFVATKLAKIRKPTLDKPSPETFVKSAIKTVGLQSRTNGYLIHALMGSIISNLPSWIYLKIVMNMNKSTRAHYLKKTKKN
B10: CANX (protein)
chain: HDGHDDDVIDIEDDLDDVIEEVEDSKPDTTAPPSSPKVTYKAPVPTGEVYFADSFDRGTLSGWILSKAKKDDTDDEIAKYDGKWEVEEMKESKLPGDKGLVLMSRAKHHAISAKLNKPFLFDTKPLIVQYEVNFQNGIECGGAYVKLLSKTPELNLDQFHDKTPYTIMFGPDKCGEDYKLHFIFRHKNPKTGIYEEKHAKRPDADLKTYFTDKKTHLYTLILNPDNSFEILVDQSVVNSGNLLNDMTPPVNPSREIEDPEDRKPEDWDERPKIPDPEAVKPDDWDEDAPAKIPDEEATKPEGWLDDEPEYVPDPDAEKPEDWDEDMDGEWEAPQIANPRCESAPGCGVWQRPVIDNPNYKGKWKPPMIDNPSYQGIWKPRKIPNPDFFEDLEPFRMTPFSAIGLELWSMTSDIFFDNFIICADRRIVDDWANDGWGLKKAADGAAEPGVVGQMIEAAEERPWLWVVYILTVALPVFLVILFCCSGKKQTSGMEYKKTDAPQPDVKEEEEEKEEEKDKGDEEEEGEEKLEEKQKSDAEEDGGTVSQEEEDRKPKAEEDEILNRSPRNRKPRRE

test system: SLC16A11; test: SLC16A11 protein-protein interaction study (immunoprecipitation, quantitative mass spectrometry); set-up: species or system human; conditions: enrichment of protein immunoprecipitated from HEK293T cells expressing P2D SLC16A11^REF-V5 vs empty vector control; Blandt-Altman; quantitative mass spectrometry
Source text: Alternatively, these variants may result in reduced transport because they disrupt protein-protein interactions responsible for correct SLC16A11 function. To explore this possibility, SLC16A11 was immunoprecipitated from HEK293T cells expressing either REF or T2D risk SLC16A11-V5 or empty vector control and quantitative mass spectrometry was used to define the SLC16A11 interactome.
Another mechanism through which the variants could affect activity is through disruption of protein-protein interactions. To explore this possibility, quantitative mass spectrometry-based protein-protein interaction studies were performed to define the SLC16A11 interactome and evaluate if the T2D risk coding variants alter any interactions.
Beads were then washed once with lysis buffer and three times with wash buffer. After the last wash, residual wash buffer was removed, 10 μL fresh wash buffer was added, and beads were stored at −80° C. until analysis by the Proteomics Platform at the Broad Institute, as detailed in the “Proteomics Methods for SLC16A11 Protein Interaction Studies” below.
The beads from immunopurification were washed once with IP lysis buffer, then three times with PBS, the three different lysates of each replicate were resuspended in 90 uL digestion buffer (2M Urea, 50 mM Tris HCl), 2 ug of sequencing grade trypsin added, 1 hour shaking at 700 rpm. The supernatant was removed and placed in a fresh tube. The beads were then washed twice with 50 uL digestion buffer and combined with the supernatant. The combined supernatants were reduced (2 uL 500 mM DTT, 30 minutes, RT), alkylated (4 uL 500 mM IAA, 45 minutes, dark) and a longer overnight digestion performed: 2 ug (4 uL) trypsin, shake o/n, The samples were then quenched with 20 uL 10% FA and desalted on 10 mg SepPak columns.
Desalted peptides were labelled with iTRAQ reagents according to the manufacturer's instructions (AB Sciex, Foster City, Calif.). Peptides were dissolved in 30 μl of 0.5 M TEAB pH 8.5 solution and labeling reagent was added in 70 ul of ethanol. After 1 h incubation the reaction was stopped with 50 mM Tris/HCl pH 7.5. Differentially labelled peptides were mixed and subsequently desalted on 10 mg SepPak columns.
Reconstituted peptides were separated on an online nanoflow EASY-nLC 1000 UHPLC system (Thermo Fisher Scientific) and analyzed on a benchtop Orbitrap Q Exactive Plus mass spectrometer (Thermo Fisher Scientific). The peptide samples were injected onto a capillary column (Picofrit with 10 μm tip opening/75 μm diameter, New Objective, PF360-75-10-N-5) packed in-house with 20 cm C18 silica material (1.9 μm ReproSil-Pur C18-AQ medium, Dr. Maisch GmbH, r119.aq). The UHPLC setup was connected with a custom-fit microadapting tee (360 μm, IDEX Health & Science, UH-753), and capillary columns were heated to 50° C. in column heater sleeves (Phoenix-ST) to reduce backpressure during UHPLC separation. Injected peptides were separated at a flow rate of 200 nL/min with a linear 80 min gradient from 100% solvent A (3% acetonitrile, 0.1% formic acid) to 30% solvent B (90% acetonitrile, 0.1% formic acid), followed by a linear 6 min gradient from 30% solvent B to 90% solvent B. Each sample was run for 120 min, including sample loading and column equilibration times. The Q Exactive instrument was operated in the data-dependent mode acquiring HCD MS/MS scans (R=17,500) after each MS1 scan (R=70,000) on the 12 top most abundant ions using an MS1 ion target of 3×10^6 ions and an MS2 target of 5×10^4 ions. The maximum ion time utilized for the MS/MS scans was 120 ms; the HCD-normalized collision energy was set to 27; the dynamic exclusion time was set to 20 s, and the peptide match and isotope exclusion functions were enabled.
All mass spectra were processed using the Spectrum Mill software package v6.0 pre-release (Agilent Technologies) which includes modules developed by us for iTRAQ-based quantification. […]

Molecule	B.A. logFC
B1	1.26

same assay, conditions: putative SLC16A11^REF interaction partners; immunoprecipitation from HEK293T cells vs empty vector control; Blandt-Altman

Molecule	BA log fold change
B2	1.26
B3	1.25
B4	1.33
B5	1.65
B6	1.59
B7	1.26
B8	1.34
B9	1.26
B10	1.38
